Patent US20240034816A1 (Sanofi, published 2024)

Key:
cynomolgus CD16 = target: T1, cynomolgus CD16 (cynomolgus, UniProt Q8SPW2 17-208); test: SPR, fit Two State Reaction, Exp No 1
T1 construct: also called CyFcyRIII

[1] = target: T2, human CD16a (human FcγRIIIA), V isoform (human, UniProt P08637 17-208); test: SPR, fit Two State Reaction, Exp No 1
T2 construct: also called HuFcyRIIIaV; CD16a (V176)

[2] = target: T3, human CD32b (human FcγRIIB) (human, UniProt P31994 43-217, limits assumed); test: SPR, fit Steady State Affinity, mean of 3 experiments
T3 construct: also called HuFcyRIIb
T3 sequence (looked up): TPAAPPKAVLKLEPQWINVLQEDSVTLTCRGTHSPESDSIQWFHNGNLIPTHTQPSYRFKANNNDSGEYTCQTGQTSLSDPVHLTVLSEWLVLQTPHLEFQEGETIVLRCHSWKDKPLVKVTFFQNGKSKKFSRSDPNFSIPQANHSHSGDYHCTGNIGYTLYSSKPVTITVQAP

cynomolgus CD32a = target: T4, cynomolgus CD32a (cynomolgus); test: as above
T4 construct: also called CyFcyRIIa

[3] = target: T5, human CD16b (human FcgRIIIB) (human, UniProt O75015 17-200, limits assumed); test: as above
T5 construct: also called HuFcyRIIIb
T5 sequence (O75015 17-200 limits assumed): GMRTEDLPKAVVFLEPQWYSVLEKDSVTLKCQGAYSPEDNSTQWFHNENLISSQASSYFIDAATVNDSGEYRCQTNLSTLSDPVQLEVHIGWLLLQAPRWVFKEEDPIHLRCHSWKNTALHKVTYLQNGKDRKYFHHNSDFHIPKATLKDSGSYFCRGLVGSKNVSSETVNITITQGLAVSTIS

[4] = target: T6, human CD32a (human FcγRIIA) (human, UniProt P12318 34-217, limits assumed); test: as above
T6 construct: also called HuFcyRIIa
T6 sequence (looked up): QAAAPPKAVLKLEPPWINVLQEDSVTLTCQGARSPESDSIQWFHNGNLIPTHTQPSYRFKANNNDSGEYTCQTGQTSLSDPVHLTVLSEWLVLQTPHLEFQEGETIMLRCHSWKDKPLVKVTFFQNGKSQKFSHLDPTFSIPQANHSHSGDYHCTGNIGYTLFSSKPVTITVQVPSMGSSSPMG

cynomolgus CD32b = target: T7, cynomolgus CD32b (cynomolgus); test: as above
T7 construct: also called CyFcyRIIb

human CD64 (human FcγRI) = target: T8, human CD64 (human FcγRI) (human, UniProt P12314 16-292, limits assumed); test: SPR, fit 1:1 Binding, Exp No 2
T8 construct: also called HuFcyRI
T8 sequence (P12314 16-292 limits assumed): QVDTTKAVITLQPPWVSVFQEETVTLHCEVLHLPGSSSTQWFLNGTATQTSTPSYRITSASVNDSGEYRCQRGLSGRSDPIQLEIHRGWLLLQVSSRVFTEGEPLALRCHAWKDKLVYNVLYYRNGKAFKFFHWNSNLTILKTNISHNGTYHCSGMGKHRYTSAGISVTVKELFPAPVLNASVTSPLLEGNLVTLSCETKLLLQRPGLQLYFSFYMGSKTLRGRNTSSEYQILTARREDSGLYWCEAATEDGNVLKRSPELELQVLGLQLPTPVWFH

[5] = target: T9, recombinant human NKp46 extracellular domain (Gln22-Asn255) with C-terminal 6xHis tag (human, UniProt O76036 22-255); test: SPR (Biacore 8K), NKCE captured by anti-human Fc, antigen as analyte, 1:1 model; Experiment No 2
T9 construct: range 22-255; also called huNKp46
T9 sequence (O76036 other isoform, or with tags, fused parts or gaps limits assumed): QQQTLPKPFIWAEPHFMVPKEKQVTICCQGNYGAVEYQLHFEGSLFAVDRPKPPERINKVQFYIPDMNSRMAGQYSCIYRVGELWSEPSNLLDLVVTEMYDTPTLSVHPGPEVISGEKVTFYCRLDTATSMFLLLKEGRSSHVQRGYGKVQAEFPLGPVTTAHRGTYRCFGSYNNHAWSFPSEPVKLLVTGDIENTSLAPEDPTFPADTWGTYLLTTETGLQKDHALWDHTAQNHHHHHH
Procedure: (§1) Measurements were performed in multicycle kinetics experiments for each antibody using a Biacore 8K instrument. In each multicycle experiment the antibodies were captured via an anti-hum a Fc antibody immobilized on a series S CM5 sensor chip (human antibody capture kit, Cytiva, Uppsala, Catalog No. BR1008-39).
(§2) The antigens, diluted as described above (concentration range 0.1 nM to 50 nM), were injected at a flow rate of 60 μL/min for 240 sec followed by a dissociation phase of 400 sec. All analyte concentrations were run in duplicate together with multiple buffer blanks for double referencing. Regeneration of the capture surface was performed with regeneration solution (3 mol/L MgCl2) for 60 sec at 30 μL/min. Binding kinetics data were evaluated with the Biacore 8K Evaluation Software version 1.1.1.7442 using a 1:1 binding model with mass transport limitation.

cyno BCMA (PPB-17990) [6] = target: T10, cyno BCMA (PPB-17990) (cynomolgus, UniProt A0A2K5UD97 1-53); test: as above
T10 construct: also called cynomolgus BCMA
T10 sequence (A0A2K5UD97 entry or part of it): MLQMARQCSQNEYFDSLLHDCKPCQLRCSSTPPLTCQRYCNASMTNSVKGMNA
Procedure: as §1, §2

recombinant human BCMA [7] = target: T11, recombinant human BCMA (human, UniProt Q02223 1-54); test: as above
Procedure: as §1, §2

[8] = target: T12, recombinant cynomolgus NKp46 extracellular domain with C-terminal Flag-M2 tag (cynomolgus, UniProt Q95JB9 22-254); test: as above
T12 construct: range 22-254; also called cyno NKp46; not shown: C-terminal Flag-M2 tag
T12 sequence (Q95JB9 22-254): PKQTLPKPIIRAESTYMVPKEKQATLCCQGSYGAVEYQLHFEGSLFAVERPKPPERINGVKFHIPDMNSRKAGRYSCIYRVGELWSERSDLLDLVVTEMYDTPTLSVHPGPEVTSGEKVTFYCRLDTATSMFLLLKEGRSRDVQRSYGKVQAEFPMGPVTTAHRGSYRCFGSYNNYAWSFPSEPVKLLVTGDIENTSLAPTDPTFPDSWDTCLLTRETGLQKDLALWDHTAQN
Procedure: as §1, §2

[9] = target: T9, recombinant human NKp46 extracellular …; test: SPR (Biacore 8K), NKCE captured by anti-human Fc, antigen as analyte, 1:1 model; Experiment No 1
Procedure: as §1, §2

cyno BCMA (PPB-17990) [10] = target: T10, cyno BCMA (PPB-17990); test: as above
Procedure: as §1, §2

recombinant human BCMA [11] = target: T11, recombinant human BCMA; test: as above
Procedure: as §1, §2

[12] = target: T12, recombinant cynomolgus NKp46 …; test: as above
Procedure: as §1, §2

T1 sequence (Q8SPW2 17-208): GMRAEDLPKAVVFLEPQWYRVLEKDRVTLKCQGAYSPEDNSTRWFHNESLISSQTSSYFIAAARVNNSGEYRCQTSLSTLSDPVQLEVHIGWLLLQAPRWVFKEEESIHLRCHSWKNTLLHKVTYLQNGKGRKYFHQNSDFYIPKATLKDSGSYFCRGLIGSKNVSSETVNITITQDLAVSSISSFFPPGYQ
T2 sequence (P08637 17-208 F176V limits assumed): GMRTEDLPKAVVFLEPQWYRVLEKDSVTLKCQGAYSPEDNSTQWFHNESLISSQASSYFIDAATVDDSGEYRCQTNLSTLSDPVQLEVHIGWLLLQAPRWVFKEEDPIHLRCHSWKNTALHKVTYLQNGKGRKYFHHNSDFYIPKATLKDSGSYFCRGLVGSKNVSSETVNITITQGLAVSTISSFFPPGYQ

B1: NKp46-BCMA_Fc-ADE-DSB NKCE (bispecific antibody, human IgG1, kappa)
light: QTVVTQEPSLTVSPGGTVTLTCASSTGTVTPSNYANWVQQKPGQAFRGLIGDNNSRPPGTPARFSASLLGGKAALTLSGVQPEDEAEYYCALWFGNQWVFGGGTKLTVLGGGGSGGGGSDIQMTQSPSSLSASVGDRVTITCRASQDISNYLNWYQQKPGKAPKLLIYYTSRLHSGVPSRFSGSGSGTDFTFTISSLQPEDIATYFCQQGNTRPWTFGGGTKVEIKGGGGSGGGGSRTVAAPSVFIFPPSDEQLKSGTASVVCLLNNFYPREAKVQWKVDNALQSGNSQESVTEQDSKDSTYSLSSTLTLSKADYEKHKVYACEVTHQGLSSPVTKSFNRGEC
heavy: QVQLVQSGAEVKKPGSSVKVSCKASGYTFSDYVINWVRQAPGQGLEWMGEIYPGSGTNYYNEKFKAKATITADKSTSTAYMELSSLRSEDTAVYYCARRGRYGLYAMDYWGQGTTVTVSSQVQLVESGGGVVQPGRSLRLSCAASGFTFSNFGMHWVRQAPGRGLEWVAVIWSDETNRYYADSVKGRFTVSRDNVKSTVYLQMNSLISEDTAVYYCARDQQYCSSDSCFTWFDPWGQGTLVTVSSASTKGPSVFPLAPSSKSTSGGTAALGCLVKDYFPEPVTVSWNSGALTSGVHTFPAVLQSSGLYSLSSVVTVPSSSLGTQTYICNVNHKPSNTKVDKKVEPKSCDKTHTCPPCPAPELLAGPDVFLFPPKPKDTLMISRTPEVTCVVVDVSHEDPEVKFNWYVDGVEVHNAKTKPCEEQYNSTYRCVSVLTVLHQDWLNGKEYKCKVSNKALPAPEEKTISKAKGQPREPQVYTLPPCRDELTKNQVSLWCLVKGFYPSDIAVEWESNGQPENNYKTTPPVLDSDGSFFLYSKLTVDKSRWQQGNVFSCSVMHEALHNHYTQKSLSLSPG
chain: DKTHTCPPCPAPELLAGPDVFLFPPKPKDTLMISRTPEVTCVVVDVSHEDPEVKFNWYVDGVEVHNAKTKPCEEQYNSTYRCVSVLTVLHQDWLNGKEYKCKVSNKALPAPEEKTISKAKGQPREPQVCTLPPSRDELTKNQVSLSCAVKGFYPSDIAVEWESNGQPENNYKTTPPVLDSDGSFFLVSKLTVDKSRWQQGNVFSCSVMHEALHNRFTQKSLSLSPG
Cynomolgus CD16
  Kd: 10 nM
[1]
  Kd: 11.7 nM
[2]
  Kd: 1280 nM
Cynomolgus CD32a
  Kd: 1500 nM
[3]
  Kd: 1760 nM
[4]
  Kd: 678 nM
Cynomolgus CD32b
  Kd: 1080 nM
Human CD64 (human FcγRI)
  Kd: 0.27 nM
[5]
  Kd: 13.2 nM
  koff: 0.0018 s⁻¹
  kon: 140000 M⁻¹ s⁻¹
Cyno BCMA (PPB-17990) [6]
  Kd: 0.3 nM
  koff: 5.8e-05 s⁻¹
  kon: 180000 M⁻¹ s⁻¹
Recombinant human BCMA [7]
  Kd: 0.2 nM
  koff: 6.9e-05 s⁻¹
  kon: 320000 M⁻¹ s⁻¹
[8]
  Kd: 16.2 nM
  koff: 0.0034 s⁻¹
  kon: 210000 M⁻¹ s⁻¹
[9]
  Kd: 11.8 nM
  koff: 0.0019 s⁻¹
  kon: 160000 M⁻¹ s⁻¹
Cyno BCMA (PPB-17990) [10]
  Kd: 0.4 nM
  koff: 7.2e-05 s⁻¹
  kon: 170000 M⁻¹ s⁻¹
Recombinant human BCMA [11]
  Kd: 0.2 nM
  koff: 6.1e-05 s⁻¹
  kon: 280000 M⁻¹ s⁻¹
[12]
  Kd: 16.6 nM
  koff: 0.003 s⁻¹
  kon: 210000 M⁻¹ s⁻¹
